Laboratory results taken from US20170051072A1 (UNITED STATES OF AMERICA AS REPRESENTED BY THE SECRETARY …, published 2017).
Where “and” joins values, the source holds several entries; their conditions need not be identical. Equal values may be shown once.

Tests used:
[1] = target: T1, human mesothelin with His-tag (R&D Systems) (human, UniProt Q13421 296-580); experiment: ELISA, IgG on captured His-huMesothelin (R&D)
T1 construct: also called huMesothelin; MSLN; not shown: His-tag

[2] = target: T2, human mesothelin with His-tag (in house) (human, UniProt Q13421 296-598, limits assumed); experiment: ELISA, IgG on captured His-huMesothelin (in house)
T2 construct: also called huMesothelin; MSLN; not shown: His-tag

human mesothelin (SPR) = target: T3, human mesothelin (SPR) (human, UniProt Q13421 296-598, limits assumed); experiment: SPR, IgG captured on Protein A, 50 nM human mesothelin, 25 C, 1:1 fit
T3 construct: also called human MSLN
T3 sequence (Q13421 other isoform, or with tags, fused parts or gaps limits assumed): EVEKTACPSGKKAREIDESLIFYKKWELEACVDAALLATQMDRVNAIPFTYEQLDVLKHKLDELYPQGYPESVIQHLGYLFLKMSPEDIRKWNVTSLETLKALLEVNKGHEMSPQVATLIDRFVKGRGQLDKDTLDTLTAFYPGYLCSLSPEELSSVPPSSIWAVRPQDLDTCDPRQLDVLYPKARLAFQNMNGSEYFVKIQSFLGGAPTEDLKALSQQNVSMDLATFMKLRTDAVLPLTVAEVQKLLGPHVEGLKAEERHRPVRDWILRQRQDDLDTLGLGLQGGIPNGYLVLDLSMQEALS

T1 sequence (Q13421 other isoform, or with tags, fused parts or gaps limits assumed): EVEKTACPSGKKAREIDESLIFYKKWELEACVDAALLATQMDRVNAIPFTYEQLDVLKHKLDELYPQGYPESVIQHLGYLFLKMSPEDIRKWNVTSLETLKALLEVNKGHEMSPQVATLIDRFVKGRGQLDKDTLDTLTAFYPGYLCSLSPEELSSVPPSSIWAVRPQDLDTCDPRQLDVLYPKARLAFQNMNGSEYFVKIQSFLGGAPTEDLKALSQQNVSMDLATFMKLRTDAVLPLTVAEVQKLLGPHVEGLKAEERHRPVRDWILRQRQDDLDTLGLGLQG

Binder | EC50 [1] | EC50 [2] | Kd (human mesothelin (SPR))
IgG VH 000/15437 + VL 001/15457 (antibody, V domains shown) VH: not shown VL: DIQMTQSPSSLSASVGDRVTITCSASSSVSYMHWYQQKSGKAPKLLIYDTSKLASGVPSRFSGSGSGTDFTLTISSLQPEDFATYYCQQWSKHPLTFGQGTKLEIK | 0.0182 µg/mL | 0.0178 µg/mL | –
IgG VH 001/15438 + VL 000/15456 (antibody, V domains shown) VH: QVQLVQSGAEVKKPGASVKVSCKASGYSFTGYTMNWVRQAPGQGLEWMGLITPYNGASSYNQKFRGKATMTVDTSTSTVYMELSSLRSEDTAVYYCARGGYDGRGFDYWGQGTLVTVSS VL: not shown | 0.0228 µg/mL | 0.032 µg/mL | –
IgG VH 001/15438 + VL 001/15457 (antibody, V domains shown, also called VL001/VH001; VL01/VH01) VH: QVQLVQSGAEVKKPGASVKVSCKASGYSFTGYTMNWVRQAPGQGLEWMGLITPYNGASSYNQKFRGKATMTVDTSTSTVYMELSSLRSEDTAVYYCARGGYDGRGFDYWGQGTLVTVSS VL: DIQMTQSPSSLSASVGDRVTITCSASSSVSYMHWYQQKSGKAPKLLIYDTSKLASGVPSRFSGSGSGTDFTLTISSLQPEDFATYYCQQWSKHPLTFGQGTKLEIK | 0.0155 µg/mL | 0.0203 µg/mL | 0.263 nM and 0.26 nM
